From PMC9877012

Key:
[1] = target: Poly-L-lysine hydrobromide (MW, 70,000-150,000 Da); test: co-sedimentation; precipitation rate of LOX: LOX mixed with PLL, centrifuged at 18,000 x g for 20 min at 25 °C, LOX in the supernatant by absorbance at 280 nm; 5 µM LOX, 1 mM PLL, 5-20 mM (NH4)2SO4
[2] = target: Poly-L-lysine hydrobromide (MW, 70,000-150,000 Da)

- percent of LOX in the droplets [1]: 90%
- relative enzyme activity of LOX (0.1 µM) with 0.02 mM PLL against LOX without PLL, 0-10 mM (NH4)2SO4 (about 15 times without and about five times with 10 mM ammonium sulfate) [2]: 15 fold
B1: L-lactate oxidase (enzyme)
chain: MNNNDIEYNAPSEIKYIDVVNTYDLEEEASKVVPHGGFNYIAGASGDEWTKRANDRAWKHKLLYPRLAQDVEAPDTSTEILGHKIKAPFIMAPIAAHGLAHTTKEAGTARAVSEFGTIMSISAYSGATFEEISEGLNGGPRWFQIYMAKDDQQNRDILDEAKSDGATAIILTADSTVSGNRDRDVKNKFVYPFGMPIVQRYLRGTAEGMSLNNIYGASKQKISPRDIEEIAGHSGLPVFVKGIQHPEDADMAIKRGASGIWVSNHGARQLYEAPGSFDTLPAIAERVNKRVPIVFDSGVRRGEHVAKALASGADVVALGRPVLFGLALGGWQGAYSVLDYFQKDLTRVMQLTGSQNVEDLKGLDLFDNPYGYEY
